Assay results as given in paper PMC9927489 (Microbiology Spectrum, 2023).
pKd: −log10 of the molar value. Where two headings read alike, the source gives them in different places.

Assays:
[1] = molecular target: Mycobacterium tuberculosis dUTPase mutant mDut H145F, His-tagged (Mycobacterium tuberculosis (strain H37Rv)) (UniProt P9WNS5); assay: BLI; […] (218.7 nM) […]; 28°C; 1:1 kinetic model
[2] = molecular target: Mycobacterium tuberculosis dUTPase mutant mDut H145F, His-tagged (Mycobacterium tuberculosis (strain H37Rv)) (UniProt P9WNS5); assay: BLI; […] (218.7 nM) […]; 28°C; 1:1 kinetic model; remark: listed apart in the source

“Stl^N-ter (SaPIbov1 Stl, N-terminal DNA-binding domain and middle domain, residues 1 to 156) (domain or fragment)” showed a pKd [1] of 7.90, a koff [1] of 0.00483 s⁻¹ and a kon [1] of 388000 M⁻¹ s⁻¹. It also gave a pKd [2] of 7.90.
